The values below come from patent publication US20150038427A1 (SYMIC BIOMEDICAL, published 2015).

The target in assay [1] is T1, collagen.
T1 construct: also called collagen-treated well; collagen surface
Briefly: fluorescence plate binding assay, dansyl peptide on collagen-coated wells, curve fitted to the data of FIG. 3. As to the method:
(§1) Binding assays were done in a 96-well high-binding plate, black with a clear bottom (Costar). Collagen was compared to untreated wells and BSA coated wells. Collagen and BSA were immobilized at 37° C. for 1 hr by incubating 90 μL/well at concentrations of 2 mg/mL in 10 mM HCl and 1× PBS, respectively. Each well was washed 3× with 1× PBS after incubating. Z-SILY was dissolved in 1× PBS at concentrations from 100 μM to 10 nM in 10-fold dilutions. Wells were incubated for 30 min at 37° C. and rinsed 3× with PBS and then filled with 90 μL of 1× PBS. Fluorescence readings were taken on an M5 Spectramax Spectrophotometer (Molecular Devices) at excitation/emission wavelengths of 335 nm/490 nm respectively.

In assay [2] the target is T1, collagen. In words: fluorescence plate binding assay, dansyl peptide on collagen-coated 96-well plate, equilibrium. As to the method:
as §1

Ends that are not written are not given here. * marks the point of attachment. Dansyl = CN(C)c1cccc2c(S(=O)(=O)*)cccc12

B1: Dansyl-GRRANAALKAGELYKSILYGC (peptide)
peptide: Dansyl-GRRANAALKAGELYKSILYGC
notes: Fluorescently labelled version of SILY, tested as free peptide; also called ZSILY; Z-SILY
As for B1, the “EC50 (read off the curve)” value in the assay with collagen [1] is ~900 nM. In the assay with collagen [2], this molecule showed an equilibrium dissociation constant (Kd) of 860 nM.

As a reminder, the EC50 (read off the curve) is the concentration giving half of the maximal effect. A lower EC50 (read off the curve) goes with an effect from little substance. Usually Kd stands for a measure of binding affinity in units of concentration. A lower Kd goes with tighter binding.
